Test [1] addresses T1, soluble TNF receptor 1 (sTNF-R1) (human, UniProt P19438 30-211).
T1 construct: extracellular domain
T1 sequence (looked up): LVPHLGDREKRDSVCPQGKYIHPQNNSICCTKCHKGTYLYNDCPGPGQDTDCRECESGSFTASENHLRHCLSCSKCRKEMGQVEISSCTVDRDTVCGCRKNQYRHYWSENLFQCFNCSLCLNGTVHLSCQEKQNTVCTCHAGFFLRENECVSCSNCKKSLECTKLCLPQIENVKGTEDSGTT
Nature of the test: equilibrium KD; method not stated.

For test [2], the target named is T2, soluble TNF receptor 2 (sTNF-R2) (human, UniProt P20333 23-257).
T2 construct: extracellular domain
T2 sequence (looked up): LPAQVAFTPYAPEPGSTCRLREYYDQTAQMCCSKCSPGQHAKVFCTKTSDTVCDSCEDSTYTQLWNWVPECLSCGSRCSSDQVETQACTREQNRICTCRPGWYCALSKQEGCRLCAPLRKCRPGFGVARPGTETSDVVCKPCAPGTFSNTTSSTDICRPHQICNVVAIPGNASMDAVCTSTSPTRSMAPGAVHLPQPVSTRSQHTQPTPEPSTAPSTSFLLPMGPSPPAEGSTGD
Nature of the test: equilibrium KD; method not stated.

B1: SEQ11 modified single chain TNF (scTNF) (ligand)
chain: THHHHHHHHHHAGGAENLYFQGSASSSSRTPSDKPVAHVVANPQAEGQLQWVNRRANALLANGVELRDNQLVVPSEGLYLIYSQVLFKGQGCPSTHVLLTHTISRIAVSYQTKVNLLSAIKSPCQRETPEGAEAKPWYEPIYLGGVFQLEKGDRLSAEINRPDYLDFDDDGQVYFGIIALGGGSGGGSGGGSGGGSSSRTPSDKPVAHVVANPQAEGQLQWVNRRANALLANGVELRDNQLVVPSEGLYLIYSQVLFKGQGCPSTHVLLTHTISRIAVSYQTKVNLLSAIKSPCQRETPEGAEAKPWYEPIYLGGVFQLEKGDRLSAEINRPDYLDFDDDGQVYFGIIALGGGSGGGSGGGSGGGSSSRTPSDKPVAHVVANPQAEGQLQWVNRRANALLANGVELRDNQLVVPSEGLYLIYSQVLFKGQGCPSTHVLLTHTISRIAVSYQTKVNLLSAIKSPCQRETPEGAEAKPWYEPIYLGGVFQLEKGDRLSAEINRPDYLDFDDDGQVYFGIIAL
notes: also called TNF variant trimer
What is called Kd is the concentration at which binding is half-saturated. Low values mean a tighter complex, high ones a looser complex. Regarding B1, the Kd in test [1] worked out at 100 nM; in test [2] it was 12 nM.

The values above are taken from US20240252732A1 (IMMUNICOM, published 2024).
